Measurements published in patent US20040014159.

How the values were obtained:
[1] = system: T1, bis-STP-R110 (RRAT(PO3)VA-R110-AV(PO3)TARR)
T1 sequence: RRATVA

[2] = system: T2, bis-SPK-2 (KKALRRASLKG-R110-GKLSARRLAKK)
T2 sequence: KKALRRASLKG

[3] = system: T3, bis-PTK-5 (YIYGAFKRRG-R110-GRRKFAGYIY)
T3 sequence: YIYGAFKRRG

[4] = system: T4, kemptide-AMC (LRRASLG-AMC)
T4 sequence: LRRASLG

[5] = system: T5, LRRASLG-R110-GLSARRL, bis-rhodamine peptide kinase substrate (bis-kemptide)
T5 sequence: LRRASLG

[6] = system: T6, bis-SPK-4 (KKALRKASVRG-R110-GRVSAKRLAKK)
T6 sequence: KKALRKASVRG

[7] = system: T7, bis-PTK5p-R110 (YIY(PO3)GAFKRRG-R110-GRRKFAG(PO3)YIY)
T7 sequence: YIYGAFKRRG

[8] = molecular target: T8, bis-PTK5p-R110 (YIY(PO3)GAFKRRG-R110-GRRKFAG(PO3)YIY) (not fully specified)
T8 chain: YIYGAFKRRG

Molecule: PP2B
- fluorescence output after aminopeptidase M [1]: The results obtained show excellent proportionality between the fluorescence output and dephosphorylation of the substrate

Molecule: PP1
- fluorescence output after aminopeptidase M [1]: The results obtained show excellent proportionality between the fluorescence output and dephosphorylation of the substrate

Molecule: PKC
- fluorescence output after aminopeptidase M [2]: the change in output fluorescence in each assay was inversely proportional to the amount of enzyme in the reaction (Results not shown)

Molecule: tyrosine kinase lck
- fluorescence output after aminopeptidase M, with and without 100 uM ATP [3]: where 100 um ATP was included the decrease in fluorescence output was proportional to the increase in amount of enzyme in the reaction, and little or no change was observed in the absence of ATP

Molecule: catalytic subunit of cAMP-dependent protein kinase (PKA)
- fluorescence output (AMC) after aminopeptidase M, with and without 50 uM ATP [4]: In the presence of ATP, the fluorescence output decreased in proportion to the increase in amount of enzyme
- kinase reaction, fluorescence output after aminopeptidase M [2]: the peptide substrate bis-SPK-2 is a better substrate for PKA than the peptide substrate bis-SPK-4
- fluorescence output (RFU) after aminopeptidase M [5]: there is a corresponding decrease in fluorescence output with increasing concentration or units of enzyme in the reaction
- kinase reaction, fluorescence output after aminopeptidase M [6]: the peptide substrate bis-SPK-2 is a better substrate for PKA than the peptide substrate bis-SPK-4

Molecule: AKT
- fluorescence output after aminopeptidase M [2]: the change in output fluorescence in each assay was inversely proportional to the amount of enzyme in the reaction (Results not shown)

Molecule: YOP 51
- fluorescence output after aminopeptidase M [7]: A similar profile was obtained with other tyrosine phosphatases, including YOP 51

Molecule: PP2C
- fluorescence output after aminopeptidase M [1]: The results obtained show excellent proportionality between the fluorescence output and dephosphorylation of the substrate

Molecule: serine/threonine phosphatase PP2A
- fluorescence output after Aminopeptidase II [1]: an increase in phosphatase activity resulted in an increase in fluorescence
- fluorescence output after aminopeptidase M [1]: PP2A dephosphorylated the substrate efficiently, and fluorescence increased proportionally to the amount of enzyme in the reaction

Molecule: PKG
- fluorescence output after aminopeptidase M [2]: the change in output fluorescence in each assay was inversely proportional to the amount of enzyme in the reaction (Results not shown)

B1: PTP-1B, soluble tyrosine phosphatase (enzyme, UniProt P18031 1-435, looked up, species assumed)
Tyrosine-protein phosphatase non-receptor type 1: MEMEKEFEQIDKSGSWAAIYQDIRHEASDFPCRVAKLPKNKNRNRYRDVSPFDHSRIKLHQEDNDYINASLIKMEEAQRSYILTQGPLPNTCGHFWEMVWEQKSRGVVMLNRVMEKGSLKCAQYWPQKEEKEMIFEDTNLKLTLISEDIKSYYTVRQLELENLTTQETREILHFHYTTWPDFGVPESPASFLNFLFKVRESGSLSPEHGPVVVHCSAGIGRSGTFCLADTCLLLMDKRKDPSSVDIKKVLLEMRKFRMGLIQTADQLRFSYLAVIEGAKFIMGDSSVQDQWKELSHEDLEPPPEHIPPPPRPPKRILEPHNGKCREFFPNHQWVKEETQEDKDCPIKEEKGSPLNAAPYGIESMSQDTEVRSRVVGGSLRGAQAASPAKGEPSLPEKDEDHALSYWKPFLVNMCVATVLTAGAYLCYRFLFNSNT
- fluorescence output after aminopeptidase M [7]: the increase in the fluorescence output is proportional to the amount of phosphatase added per reaction

B2: CD45, recombinant human receptor protein tyrosine phosphatase (protein)
chain: SCNLDEQQELVERDDEKQLMNVEPIHADILLETYKRKIADEGRLFLAEFQSIPRVFSKFPIKEARKPFNQNKNRYVDILPYDYNRVELSEINGDAGSNYINASYIDGFKEPRKYIAAQGPRDETVDDFWRMIWEQKATVIVMVTRCEEGNRNKCAEYWPSMEEGTRAFGDVVVKINQHKRCPDYIIQKLNIVNKKEKATGREVTHIQFTSWPDHGVPEDPHLLLKLRRRVNAFSNFFSGPIVVHCSAGVGRTGTYIGIDAMLEGLEAENKVDVYGYVVKLRRQRCLMVQVEAQYILIHQALVEYNQFGETEVNLSELHPYLHNMKKRDPPSEPSPLEAEFQRLPSYRSWRTQHIGNQEENKSKNRNSNVIPYDYNRVPLKHELEMSKESEHDSDESSDDDSDSEEPSKYINASFIMSYWKPEVMIAAQGPLKETIGDFWQMIFQRKVKVIVMLTELKHGDQEICAQYWGEGKQTYGDIEVDLKDTDKSSTYTLRVFELRHSKRKDSRTVYQYQYTNWSVEQLPAEPKELISMIQVVKQKLPQKNSSEGNKHHKSTPLLIHCRDGSQQTGIFCALLNLLESAETEEVVDIFQVVKALRKARPGMVSTFEQYQFLYDVIASTYPAQNGQVKKNNHQEDKIEFDNEVDKVKQDANCVNPLGAPEKLPEAKEQAEGSEPTSGTEGPEHSVNGPASPALNQGS
- fluorescence output after aminopeptidase M [8]: the increase in the fluorescence output is proportional to the amount of phosphatase added per reaction
